Target: TATA-binding protein (hTBP) (Homo sapiens, UniProt P20226 1-339)
Experiment: EMSA (kinetic, kd/ka); EMSA with 32P-labelled 26 bp duplexes; binding buffer, salt, pH and temperature not given in the material
Settings: protein: recombinant; label: 32P (both strands); blunt

TATA-binding protein (hTBP), sequence (P20226 whole entry): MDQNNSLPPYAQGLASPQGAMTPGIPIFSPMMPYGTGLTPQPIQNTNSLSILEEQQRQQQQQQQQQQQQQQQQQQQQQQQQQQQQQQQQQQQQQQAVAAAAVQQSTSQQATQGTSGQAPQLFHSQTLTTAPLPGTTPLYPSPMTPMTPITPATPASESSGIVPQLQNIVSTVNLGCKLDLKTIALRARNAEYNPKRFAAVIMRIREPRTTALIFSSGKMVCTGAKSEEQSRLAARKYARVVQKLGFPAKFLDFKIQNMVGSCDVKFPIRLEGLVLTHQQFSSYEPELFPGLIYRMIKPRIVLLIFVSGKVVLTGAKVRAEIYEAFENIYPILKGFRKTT

| Binder | Kd [nM] |
| --- | --- |
| EPOR rs971717705:G (-29A>G, ODN 7) (dsDNA) DNA 1: CACGTCATCTGTTTTTGTCTGCTACG DNA 2: CGTAGCAGACAAAAACAGATGACGTG | 150 ± 30 |
| EPOR rs567946217:G (-31C>G, ODN 9) (dsDNA) DNA 1: CACGTCATGTATTTTTGTCTGCTACG DNA 2: CGTAGCAGACAAAAATACATGACGTG | 80 ± 10 |
| EPOR rs1006576690:A (-27T>A, ODN 6) (dsDNA) DNA 1: CACGTCATCTATATTTGTCTGCTACG DNA 2: CGTAGCAGACAAATATAGATGACGTG | 11 ± 3 |
| EPOR TATA-like WT (ODN 5) (dsDNA) DNA 1: CACGTCATCTATTTTTGTCTGCTACG DNA 2: CGTAGCAGACAAAAATAGATGACGTG | 170 ± 30 |
| HBZ TATA WT (ODN 3) (dsDNA) DNA 1: AGCTCCCTGTATATAAGGGGACCCTG DNA 2: CAGGGTCCCCTTATATACAGGGAGCT | 6 |
| HBZ rs113180943:A (-29T>A, ODN 4) (dsDNA) DNA 1: AGCTCCCTGTAAATAAGGGGACCCTG DNA 2: CAGGGTCCCCTTATTTACAGGGAGCT | 40 ± 20 |
| HBB TATA WT (ODN 1, -32C) (dsDNA) DNA 1: AGGGCTGGGCATAAAAGTCAGGGCAG DNA 2: CTGCCCTGACTTTTATGCCCAGCCCT | 50 |
| HBB rs34500389:T (-32C>T, ODN 2) (dsDNA) DNA 1: AGGGCTGGGTATAAAAGTCAGGGCAG DNA 2: CTGCCCTGACTTTTATACCCAGCCCT | 32 ± 3 |
